Test results as given in PMC3099546.

Substrate: CCCCC/C=C\C\C=C/C=C/C=C/[C@@H](SC[C@H](NC(=O)CC[C@H](N)C(=O)O)C(=O)NCC(=O)O)[C@@H](O)CCCC(=O)O
Assay: purified protein

B1: gamma-glutamyl leukotrienase (GGT5) (Homo sapiens) (protein)
chain 1: SRHQAPCGPQAFAHAAVAADSKVCSDIGRAILQQQGSPVDATIAALVCTSVVNPQSMGLGGGVIFTIYNVTTGKVEVINARETVPASHAPSLLDQCAQALPLGTGAQWIGVPGELRGYAEAHRRHGRLPWAQLFQPTIALLRGGHVVAPVLSRFLHNSILRPSLQASTLRQLFFNGTEPLRPQDPLPWPALATTLETVATEGVEVFYTGRLGQMLVEDIAKEGSQLTLQDLAKFQPEVVDALEVPLGDYTLYSPPPPAGGAILSFILNVLRGFNFSTESMARPEGRVNVYHHLVETLKFAKGQRWRLGDPRSHPKLQNASRDLLGETLAQLIRQQIDGRGDHQLSHYSLAEAWGHGTG
chain 2: TSHVSVLGEDGSAVAATSTINTPFGAMVYSPRTGIILNNELLDLCERCPRGSGTTPSPVSGDRVGGAPGRCWPPVPGERSPSSMVPSILINKAQGSKLVIGGAGGELIISAVAQAIMSKLWLGFDLRAAIAAPILHVNSKGCVEYEPNFSQEVQRGLQDRGQNQTQRPFFLNVVQAVSQEGACVYAVSDLRKSGEAAGY
  Km: 10.2 ± 0.1 µM
  kcat: 3.33 s⁻¹
  kcat/Km: 317000 M⁻¹ s⁻¹
